From doi:10.1101/2023.03.13.532366 (bioRxiv, 2023) come the findings set out here.

In this test the target is T1, biotinylated mIL-12Rβ2_(D1-D6)-Casp3-AviTag-His6 (mouse, UniProt P97378 24-637, biotin on the AviTag (in vitro biotinylation with BirA)).
T1 sequence (looked up): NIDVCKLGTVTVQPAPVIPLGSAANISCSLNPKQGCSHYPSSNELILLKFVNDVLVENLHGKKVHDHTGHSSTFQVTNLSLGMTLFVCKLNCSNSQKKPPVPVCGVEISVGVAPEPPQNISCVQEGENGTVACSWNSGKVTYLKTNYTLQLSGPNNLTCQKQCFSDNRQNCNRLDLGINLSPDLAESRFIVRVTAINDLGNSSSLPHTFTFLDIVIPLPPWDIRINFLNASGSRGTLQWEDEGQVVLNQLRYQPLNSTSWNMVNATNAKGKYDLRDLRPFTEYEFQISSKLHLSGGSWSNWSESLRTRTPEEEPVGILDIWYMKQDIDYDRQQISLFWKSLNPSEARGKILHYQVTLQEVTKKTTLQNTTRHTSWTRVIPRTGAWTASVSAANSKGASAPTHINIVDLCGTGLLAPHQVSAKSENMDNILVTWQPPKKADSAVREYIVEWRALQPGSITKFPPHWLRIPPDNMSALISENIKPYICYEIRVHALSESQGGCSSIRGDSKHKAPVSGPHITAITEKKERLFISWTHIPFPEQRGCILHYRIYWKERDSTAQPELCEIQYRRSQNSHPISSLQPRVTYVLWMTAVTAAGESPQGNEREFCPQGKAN
The test can be described thus: BLI. Background: BLI is a label-free optical method that tracks binding on a fibre tip over time.

B1: mIL-12 (mIL-12a-AviTag-His6 and untagged mIL-12b), analyte in BLI (complex, mouse)
chain 1: RVIPVSGPARCLSQSRNLLKTTDDMVKTAREKLKHYSCTAEDIDHEDITRDQTSTLKTCLPLELHKNESCLATRETSSTTRGSCLPPQKTSLMMTLCLGSIYEDLKMYQTEFQAINAALQNHNHQQIILDKGMLVAIDELMQSLNHNGETLRQKPPVGEADPYRVKMKLCILLHAFSTRVVTINRVMGYLSSA
chain 2: MWELEKDVYVVEVDWTPDAPGETVNLTCDTPEEDDITWTSDQRHGVIGSGKTLTITVKEFLDAGQYTCHKGGETLSHSHLLLHKKENGIWSTEILKNFKNKTFLKCEAPNYSGRFTCSWLVQRNMDLKFNIKSSSSSPDSRAVTCGMASLSAEKVTLDQRDYEKYSVSCQEDVTCPTAEETLPIELALEARQQNKYENYSTSFFIRDIIKPDPPKNLQMKPLKNSQVEVSWEYPDSWSTPHSYFSLKFFVRIQRKKEKMKETEEGCNQKGAFLVEKTSTEVQCKGGNVCVQAQDRYYNSSCSKWACVPCRVRS
On to B1, for which the binding result was “binds”.
